Laboratory results from a protein production outcome set (Wang et al. 2014).

Test: label from the status in PepcDB records

Sequence	protein production
MDKENEYNKMCEEHDKYFKNLFKNLNRKIEYTFACEKENTYDDSVSNSIYTNSNQNEDNISYNNNNINNDNISSSSISKNSNNTKNSSFNETKNINDDKIKYDDKNVYDDKNINDDKNIYDDKYLYDDKNINHDKYSYDDKNINDDKYLYDDKNLYDGNNIYEENNYNNNNTNGHQMKSPTYHMKNSVQNITIYTSINKNDISKDINKINEKNTANINTSHIYQIKNDENNNNIYNNVEHIKSLCESYKNYDNDHLLYYKKHSHSKEDIHNYPIFNNAKTSQLENSNNDFLNIMNNNIKNNISEMESSKKKKKSNLLITNEIEDKLSNIQINHTNKINENNTIQYGQKTKGNKIGNHKTNIKEKLNDLIENIHLKNNKIENMNNMDDMNDMDNMNNMDDMDNTDNMNNRGNMNNRDNINNRDNMNNSNNMDNKDNMNNKDNINNKDNMNNKDNINNKDNINNLNCIDNMKHDKLQKDHLETPPIHKSPITRKSKNNIMDILNNKMNITSLENVDTSTPKYVKYNTIHREIMNPRQHFFNQNKSSIDHIICL	failed
MVPQTGRAARATRESGRQTRDALFTAATELFLEHGEGVPITQICAAAGAHPNQVTYYYGSKERLFVEVACAAVLRAGKRAEDDAATAETVGDYTEKLVGSLLGPGAPSVELFTSAMLMTGRRSELRDLITDTLRTLHSSGEVALIRTLMRTGWQLRAGIDVESKAFWSAIFGLVIQKTATGESFGYSLEEAVAVIFANLQIPETVRNTSID	not failed
MIDSIRVEGFRGLKELELSSLRRINVIVGRNNSGKSTLLEALSLFLGSSDPGTFGNVLHEILIWRGWYGIQTVDDLFYNGGDSFSISSTGKTLEALNSKHSLEFKLNGEPFYKIDRESIRRLASQAVLLARFSPKENFEFLTPLTFRRFGYAESLYSYAYERKVVKDSIKVLNEAYPEVEGFSPLLKEDNWVLYVETKYGVYPYYLMGEGFKSAMIISFLSSLLRDGVLLIDSAEAFHHPKSLKVMIQTLVRGSEKNNVQVFLTTHSLELLDLMLEMGRDGFVIYMKNVEGRIEVESIEFQRASELRESIGVDLRGFLEHHHHHH	not failed
MTHLQGVRHAHRQVTAGVRGLTRHLCMVLVGCSLGLVAAGCTREPSSPTARASHSDAAPATPTASPAPASTPPPAADPSVLRVCADPGNMPLSNKAGEGFQNKIAQVVAEAMGRRLEYEWRTYYQRGLARSTINAGRCDVLMDLNSDFEMGLTTRPLYRSPYVLVTRKGLDLVPTSLDDPALKKLRLGVFQSSPARQALYEHGVSGEVKYLFYDSATAPEEHPGKLVERVAAGELDAAESWGPVAGYYAARNNLGVVPLNTIDDAVLEYSMAWAVARKNAALRDALNTALQQSAAKIDEILRSYHVPLVRCADCIVAGDLASHGPYVTPASAPKSTNAATSSQELAQLQLRIADGADPNQELAHALDAGDALRAAWLLRHGADANQPNLLGEPPLHQAIRNQEPDLVGLLIDAGARLDARDGNGWTALMKAAWGNDADSVQRLLARRAPLDTVSSDGWNALELAVSYADVGVVEALLKAGAKARGANRTGFTPVMFAVPREDPAILDALLKHGADVRGANQAGVTALMLAAASGREATAKRLLAAGADPAARNRDGKTAATLAQERGDAALAALLAPGKRSTTQ	failed
MSNKRKLWQIFGPVLCAFILLIILFLIPWQNGEKSDNALFKASVSQSQTVFKGQSIKQAAFEKNYVPFYGSSELSRMDALHPSVLAYKYKRNYRPFLLGGPGSQSLTHFFTMQETVNQLSNKKAVFIISPQWFTKQGQNPAAFGMYFSQLQAVDWILTAKDSVATRYAARRLLDMPAGTASETTKYALMTLASGQKLSKYQTLYLKARRRMLANEDNFFSSIGMTNNIPKIQKEAGKLPGTYAYDNLRQFANEQGQQGTTNNKFGISNGFFDKKLNNKHLKHLKNSQRDFDYTQSPEYADFELVLNELAHEHVNVLFIIPPVNEKWAKYTGLSQTMYQECVAKITKQLTSQGFNNIANLSKDGGKKFFMEDTIHLGWNGWLKVDQYVKPFMEEKNHPVNYKLNSYYFTKAWGNKTNVKMPNVKSKAAVDIKKN	failed
MPGLPEVAPGDDLAKLIAAVEPGLVDGDVLLVTSKIVSKAEGRIVRADDREAAIDAETVRVVARRGALRIVENRQGLVMAAAGVDASNTPSGTVLLLPEDPDASARAIRDGLRDTLGVDVGVVVTDTFGRPWRTGLTDVAIGAAGVRVLDDLRGGTDAYGNPLSATVVATADELAAAGDLVKGKAAGLPVAVVRGLPHVIAGDDEAGARAMVRGGRDDMFRLGTSEAVREAVTQRRTVRAFTDEPVDPGAVRRAVAAAVTAPAPHHTTPWRFVLLESAESRTRLLDAMRDAWIADLRGDRKTEESIAKRVRRGDVLRNAPYLVVPCMVMDGSHSYGDARRDAAEREMFVVATGAGVQNFLVALAGERLGSAWVSSTMFCRDVVRRALGLPESWEPMGAVAVGHAAEEPRDRPARDAGAFIEVRLEHHHHHH	not failed
MISRQQKMTFKEIKDGEMEERDILLTGFYNVRLNSVQEARLTYNLPNDQTVKFGFDGNGYSYGSDFWYIYNRTAQLGKEISSHLDENASKWIEEAGQKGYTTGNQAKVGAIACLPSYLSDAESSSHLAFVEYLNSDGSFIVSEMPSPNILNWRLIQPQSKMTFIYL	failed
MTIYNQAIESYDEKMAKDVIMLAGRILLESGAEGSRVEDTMTRIAITLGHKESNSFVTNTVINFMLHDESYPRMYRIRTRDTNLHRISRTNGISRRLALGDISLEDAFQELQKIYQEQSIKNHYLFYKFIAAAVISVSFLYLQGGHLTDVLTALLAGSFGYIVVEILQQKLHAQFIPEFMGALVIGLVTIIGHNLIPGGSISTIIIAAVMPIVPGVLITNAIQDLFGGHMLMFTTKSLEALVTAFGIGAGVSTVLIIF	failed
MHLRLSTLAGFKTGPRFQSSMSEAESESRAGREEVWIEKYRPQTLDDVMGHENIVGRLKSYVSRNDLSHMLFSGPAGTGKTTCATAIARELYGDDWREHFLELNASDERGIDVVRDRIKNFARTSFGGVEYRIIFLDEADALTSDAQSALRRTMEQFSNNVRFILSCNYSSQIIDPIQSRCAVFRFSPLADDAVAEEIRTIAAEEDIELTEDGLDALVYAADGDMRKAINGLQAASVSGDTVDESAVYAITSTARPEEIRTMVQSALDGDFTASRATLDRLLTEEGIAGGDIIDQLHRSIWEFDIDDDAAVRVLERIGETDYRITRGANERVQLEAMLASLAQGE	failed
MSESNISGPLAGEYRDLAVYGRLATVTMIWGGTFVAGRYLAGGLSPLLAASLRFLLASLALLGFMAVARIPLVRPSLRQFGQLALLGFFGIFFYNLCFFLGLEQVKASRASLIVALNPAVIALASWALFKERLGRRKLLGIALCLCGAALVICSRDPSALAAQAGSWQGDLLILGCVLGWGVYSLFSRGLNHSLGSLQTVTCSILLGTLMLCAATLIRGEFDLQAVARLNLAQGLSLLYLGVLGSALAYIWYYDGLRRIGATRCGVFIALNPLTAVILGALVLGEQLSPVMGLGGALILGGIYQCNKPLAGGAKKAIL	failed
MIKYLIEKEFKQLLRNSFLPRLIFIFPCMIMLLMPWAANLEIKNIRMNIIDNDHSVISRRLVDKITASTYFQTTALPDSYEKGMEAIEAGTADLLLEIPRGFEKDWVNGGAANVLLAVNAVNGTKGGLGSSYLSAIVNDYGEELRTESGTTSFSADGNLPRIDILTQNLFNARLDYKLFMVPALMVMLLTMLCGFLPALNIVGEKEAGTIEQINVTPVGKFTFILAKLIPYWLIGFVVLTLCFVLAWTLYGIFPVGHFWVIYCFSIVFVLAVSGLGLVISNHSATMQQAMFVMWFCMLILILMSGLFTPIRSMPEWAQWITMLNPLKYFMQVMRMVYLKGSGFIDLLPQLGALLAFALLFNVWAVKSYRKSG	failed
MPKITVYTGKEVLQIDAKEGSSLLDILAENSLYVEAPCGGKGICGKCKVAVKKDGKPYLENITKEEKRLLTSDELQKGIRLCCNLKVFESLEVFLPHSKIGAKILSGLYTLEHHHHHH	failed
MKILVTGGTGLIGRHFISAFNHKYQFTVLTRNTQKAQLYLPKNIEFIEQLPEQNYFDVIINLAGEPIIDKRWSRAQKENICQSRWNITEKIVEMIARATDKPSCLISGSAIGYYGETGAVSTHEDAKVTHSDFAHTLCQKWEELALKAKEHCRVVLLRTGIVLASDGGALEKMRLPFSLGLGGKLGNGQQYMSWIHIDDMIHAIHFSVQIKCIEGAINCTSPKAITNEVFTKALGKEVNRPTWFSVPAFVLNILMGQGAELLLTSQNIYPQKLLSHGFHFNHSDIEHALADLMTES	failed
ASDSAFTYNGVSITRPTNEVNDVISGVNITLEQTTEPNKPAIISVSRDNQAIIDSLTEFVKAYNELIPKLDEDTRYDADTKIAGIFNGVGDIRAIRSSLNNVFSYSVHTDNGVESLMKYGLSLDDKGVMSLDEAKLSSALNSNPKATQDFFYGSDSKDMGGREIHQEGIFSKFNQVIANLIDGGNAKLKIYEDSLDRDAKSLTKDKENAQELLKTRYNIMADVLPLMIAKSLKPIKNSIPCK	failed
MEKRQFMKMKEKLKRACFEFAVSNRYLYNLAKRILDSSPKLQKIKEFLIPKEFLIPAANLSNVFEPETSFQNSGRFFKKIKTCFNGGLPPENLDQDLAIINQRWNVNNEGYQIFSHRKILGPFLVRGRRLVHGEVRRYVDPIFHLQREFNASVVRILNRTTEDLRVLSSKNDAIEGKLNTVEEKISGTVRKDEFKEFKDKIMINHDKLQTDFYELKNSLTKNLEELSSTVESIKAKIDTAEEKISGTDIHTSDYYFLFEEKFRGSRELVKARLRRYIPYFKGCRRVLDIGCGRGEFLELCKEEGIESIGVDINEDMIKFCEGKFNVVKSDAIEYLKSLPDKYLDGVMISHFVEHLDPERLFELLSLCYSKMKYSSYIVIESPNPTSLYSLINFYIDPTHKKPVHPETLKFILEYLGFRDVKIEFFEECEELTKLAKIDSNTVSEEVIRVINENIEKLNRILFGPQDYAIIAKK	failed
MMKRVAVTGAAGRVGTLLRPLLRSHFEHLSLIDLQEPDELGENENFVRADFTKLDEATAALKDIDGVIHLAGIASGTDMNAILHANVLGTYNLYEAARINKVQRVVYASSNHATGFYPRGQLVSPLDPMRPDSPYGLSKCWGELVAGLYYDTSGIRSLSIRIGNAGTYPNSERSIAIWISARDLAQLVRIGLSHPLIAATVVYGVSDTEEKWWENDLATRLGYQPQDRPRDHALIEEGSEGPVALAFQGGGFCEINHDGTIRMRDADGLAKSPETVE	failed
MTLIPTDLSASRLSDAVRDPNREIAASSRVIDLSVGIVVCIPCFRRPQHLRLTLESLASQRTPRSFAVVMVENDAARRESAPVAAEYLADGRLQGICLVEQRQGNCQAINAAFETAQALFPAATRFLMIDDDEIASPDWLELMVRTAEATGADVVGGPVLPDFDDDSQPWLSRHPAFRPAYDYSGAVPLIYGCGNCLITRAAFDRLGSPAFDLRFNFLGGGDCDFFVRCRDAGMTFHWTTEAVITETVPQSRTSLGWIAKRGLRIGAINYRVQHKAAQGAAARVRVFAQMLGRLPLSLLRAARLLATSKAVVAMHPVMVALGSLLAALGIEPKPYEASKIVS	failed
MEVERLSLKEFCDMVAERKPTPGGGAVGSVVGAMACALAEMVANFTRKKKGYEDVEPEMERIVEAMEEARLKLFDLAKKDMEAFEKVMKAYKSSEGELQNALKEAASVPMDVIRVMKDLAHELEKLAEFGNKNLASDTLNAADLCHAVFQVEKVNVLINLKEISDETFRKNMLEELEEQEAQIEGCYQRVKKMLEGIVWSSK	not failed
